Patent publication US20230002493A1 (ORIONIS BIOSCIENCES, published 2023)
Where a chain is given by its changes, count along the chain named. Names may count otherwise. One block for each binder: values may come before it.

Assays:
[1] = target: T1, recombinant PD-L1 extracellular domain fused to the mouse IgG1 Fc domain (SinoBiologicals) (human; mouse, UniProt Q9NZQ7 19-238); test: BLI (Octet Red 96), PD-L1-mouse IgG1 Fc on AMQ biosensors, VHH dilution series
T1 construct: extracellular domain; also called human PD-L1-mouse Fc; PD-L1-mouse Fc protein; not shown: mouse IgG1 Fc domain
Description: (§1) Affinities of resulting variants were measured using the bio-layer interferometry technology on an Octet Red 96 instrument (ForteBio). In brief, recombinant PD-L1 extracellular domain fused to the mouse IgG1 Fc domain (SinoBiologicals) was immobilized on anti-murine IgG quantitation (AMQ) biosensors (ForteBio). Loaded sensors were incubated with a serial dilution of PD-L1 VHH variant, association and dissociation monitored and kinetic parameters were calculated using the Octet Data Analysis software v10 (ForteBio).

[2] = target: T1, recombinant PD-L1 extracellular domain …; test: BLI (Octet Red 96); ratio of the printed KDs, 2LIG99 over variant
Description: as §1

[3] = target: T1, recombinant PD-L1 extracellular domain …; test: BLI (Octet Red 96), PD-L1-mouse IgG1 Fc on AMQ biosensors, VHH dilution series; KD and kdis printed ND
Description: as §1

[4] = target: T1, recombinant PD-L1 extracellular domain …; test: BLI (Octet), PD-L1-mouse Fc on the sensor, VHH dilution series, as described above
Description: as §1

[5] = target: T1, recombinant PD-L1 extracellular domain …; test: BLI (Octet Red 96), PD-L1-mouse IgG1 Fc on AMQ biosensors, VHH dilution series; remark: listed apart in the source
Description: as §1
(§2) The aspartic acid at position 1 was included to avoid the risk of pyroglutamate formation. […] Resulting mutants were purified and affinities measured as described in Example 1.

[6] = target: T1, recombinant PD-L1 extracellular domain …; test: BLI as in Example 1; reference not named, taken as parental 2LIG189
Description: as §1, §2

[7] = target: T1, recombinant PD-L1 extracellular domain …; test: BLI (Octet Red 96); ratio of the printed KDs, variant over 2LIG189
Description: as §1, §2

[8] = target: T1, recombinant PD-L1 extracellular domain …; test: BLI as described above; reference not named

T1 sequence (Q9NZQ7 19-238): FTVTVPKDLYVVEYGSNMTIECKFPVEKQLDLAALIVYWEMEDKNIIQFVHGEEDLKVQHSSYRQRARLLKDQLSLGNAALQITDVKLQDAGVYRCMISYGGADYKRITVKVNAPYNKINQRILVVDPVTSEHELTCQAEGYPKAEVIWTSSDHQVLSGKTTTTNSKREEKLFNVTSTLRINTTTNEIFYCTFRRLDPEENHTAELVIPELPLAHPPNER

Kd [1]: 0.459 nM
koff [1]: 0.0007 s⁻¹
kon [1]: 1.53e+06 M⁻¹ s⁻¹
Ratio KD [2]: 0.61
B1: 2LIG99_D55K (VHH)
VHH: QVQLQESGGGLVQAGGSLRLSCTASGTIFSINRMDWFRQAPGKQRELVALITSKGTPAYADSAKGRFTISRDNTKKTVSLQMNSLKPEDTAVYYCHVSSGVYNYWGQGTQVTVSS

Kd [1]: 0.794 nM
koff [1]: 0.000704 s⁻¹
kon [1]: 886000 M⁻¹ s⁻¹
Ratio KD [2]: 0.35
B2: 2LIG99_OPT1 (VHH)
VHH: B1 VHH with Q1D, Q5V, A14P, K54D, T74S, K86R, Q110L

Kd [1]: 1.48 nM
koff [1]: 0.000658 s⁻¹
kon [1]: 445000 M⁻¹ s⁻¹
Ratio KD [2]: 0.19
B3: P-1660: 2LIG99_OPT2 (Q1D_Q5V_A14P_T23A_T74S_K86R_Q110L) (VHH)
VHH: B1 VHH with Q1D, Q5V, A14P, T23A, K54D, T74S, K86R, Q110L
notes: not shown: C-terminal His-tag

Kd [1]: 0.452 nM
koff [1]: 0.000304 s⁻¹
kon [1]: 671000 M⁻¹ s⁻¹
Ratio KD [2]: 0.62
B4: 2LIG99_OPT4 (VHH)
VHH: B1 VHH with Q1D, Q5V, A14P, K54D, T74S, K76N, K86R, Q110L

Kd [1]: 0.124 nM
koff [1]: 7.55e-05 s⁻¹
kon [1]: 607000 M⁻¹ s⁻¹
Ratio KD [2]: 2.27
B5: 2LIG99_OPT5 (VHH)
VHH: B1 VHH with Q1D, Q5V, A14P, K54D, T74S, S79Y, K86R, Q110L

Kd [1]: 10.3 nM
koff [1]: 0.00124 s⁻¹
kon [1]: 121000 M⁻¹ s⁻¹
Ratio KD [2]: 0.03
B6: P-1664: 2LIG99_OPT6 (Q1D_Q5V_A14P_T23A_A63V_T74S_K76N_S79Y_K86R_Q110L) (VHH)
VHH: DVQLVESGGGLVQPGGSLRLSCAASGTIFSINRMDWFRQAPGKQRELVALITSDGTPAYADSVKGRFTISRDNSKNTVYLQMNSLRPEDTAVYYCHVSSGVYNYWGQGTLVTVSS
notes: not shown: C-terminal His-tag

kon [3]: 1.28e+06 M⁻¹ s⁻¹
B7: P-1665: 2LIG99_D54G (VHH)
VHH: B1 VHH with K54G
notes: not shown: C-terminal His-tag

Kd [1]: 1.01 nM
koff [1]: 0.000761 s⁻¹
kon [1]: 753000 M⁻¹ s⁻¹
Ratio KD [2]: 0.28
B8: 2LIG99_G56R (VHH)
VHH: B1 VHH with K54D, G55R

Kd [1]: 1.48 nM
koff [1]: 0.000436 s⁻¹
kon [1]: 295000 M⁻¹ s⁻¹
Ratio KD [2]: 0.19
B9: 2LIG99_D55T (VHH)
VHH: B1 VHH with K54T

Kd [4]: 5.41 nM
koff [4]: 0.00131 s⁻¹
kon [4]: 243000 M⁻¹ s⁻¹
Kd [5]: 0.791 nM
koff [5]: 0.000148 s⁻¹
kon [5]: 187000 M⁻¹ s⁻¹
B10: 2LIG189 VHH (VHH, not shown: small tags and cut ends)
VHH: QVQLQESGGGLVQAGGSLRLSCAASGKIFSGNDMGWYRQAPGKQRELVGIITSGGITDYADAVKGRFTISRDNAKNMMYLQMNSLKPEDTAVYYCNMRDRTIWWGQGTQVTVSS
notes: Parental PD-L1 VHH; stands here as the molecule on which the mutations are counted; also called wild-type 2LIG189

fold increase in affinity [6]: ≥ 2 fold
Kd [5]: < 0.001 nM
koff [5]: < 1e-07 s⁻¹
kon [5]: 351000 M⁻¹ s⁻¹
B11: 2LIG189 variant N32R (VHH, not shown: small tags and cut ends)
VHH: B10 VHH with N32R

Ratio KD [7]: 0.47
fold increase in affinity [6]: ≥ 2 fold
Kd [5]: 0.372 nM
koff [5]: 0.000157 s⁻¹
kon [5]: 421000 M⁻¹ s⁻¹
B12: 2LIG189 variant D33H (VHH, not shown: small tags and cut ends)
VHH: B10 VHH with D33H

Ratio KD [7]: 0.01
fold increase in affinity [6]: ≥ 2 fold
Kd [5]: 0.00599 nM
koff [5]: 3.81e-07 s⁻¹
kon [5]: 63700 M⁻¹ s⁻¹
B13: 2LIG189 variant M97V (VHH, not shown: small tags and cut ends)
VHH: B10 VHH with M97V

Kd [4]: 0.555 nM
koff [4]: 0.000329 s⁻¹
kon [4]: 593000 M⁻¹ s⁻¹
B14: SEQ ID NO: 73 (2LIG189 humanization variant with deamidation and oxidation risk sites removed) (VHH)
VHH: B10 VHH with Q1D, Q5V, A14P, D33H, A74S, M77T, M78V, K86R, M97I, Q109L
notes: also called 2LIG189 second wave variant

Ratio KD [7]: 0.16
fold increase in affinity [6]: ≥ 2 fold
Kd [5]: 0.125 nM
koff [5]: 8.84e-06 s⁻¹
kon [5]: 70500 M⁻¹ s⁻¹
B15: 2LIG189 variant N32Q (VHH, not shown: small tags and cut ends)
VHH: B10 VHH with N32Q

Kd [4]: 0.324 nM
koff [4]: 0.000145 s⁻¹
kon [4]: 446000 M⁻¹ s⁻¹
B16: 2LIG189_OPT_D33H (VHH)
VHH: B10 VHH with Q1D, Q5V, A14P, D33H, A74S, M77T, M78V, K86R, Q109L

Kd [4]: 3.38 nM
koff [4]: 0.00056 s⁻¹
kon [4]: 166000 M⁻¹ s⁻¹
B17: 2LIG189_OPT_N32R_M97V (VHH)
VHH: B10 VHH with Q1D, Q5V, A14P, N32R, A74S, M77T, M78V, K86R, M97V, Q109L

Kd [4]: 1.94 nM
koff [4]: 0.000731 s⁻¹
kon [4]: 377000 M⁻¹ s⁻¹
B18: 2LIG189_OPT_N32R (VHH)
VHH: B10 VHH with Q1D, Q5V, A14P, N32R, A74S, M77T, M78V, K86R, Q109L

Ratio KD [7]: 0.01
fold increase in affinity [6]: ≥ 2 fold
Kd [5]: 0.0115 nM
koff [5]: 4.88e-07 s⁻¹
kon [5]: 42500 M⁻¹ s⁻¹
B19: 2LIG189 variant M97L (VHH, not shown: small tags and cut ends)
VHH: B10 VHH with M97L

Ratio KD [7]: 0.01
fold increase in affinity [6]: ≥ 2 fold
Kd [5]: 0.00741 nM
koff [5]: 3.45e-07 s⁻¹
kon [5]: 46500 M⁻¹ s⁻¹
B20: 2LIG189 variant M97I (VHH, not shown: small tags and cut ends)
VHH: B10 VHH with M97I
notes: also called M971 (so in the source)

fold increase in affinity [8]: 40 fold
Kd [4]: 0.144 nM
koff [4]: 7.71e-05 s⁻¹
kon [4]: 536000 M⁻¹ s⁻¹
B21: SEQ ID NO: 72 (2LIG189 humanization variant with deamidation and oxidation risk sites removed) (VHH)
VHH: B10 VHH with Q1D, Q5V, A14P, D33H, A74S, M77T, M78V, K86R, M97V, Q109L
notes: as for B14

Kd [4]: 2.32 nM
koff [4]: 0.000457 s⁻¹
kon [4]: 197000 M⁻¹ s⁻¹
B22: 2LIG189_OPT_N32R_M97I (VHH)
VHH: B10 VHH with Q1D, Q5V, A14P, N32R, A74S, M77T, M78V, K86R, M97I, Q109L
